Residue numbers refer to the chain shown, from its start. Numbers in names are those of the source.
T1: IL-18 receptor β extracellular domains (residues 15-356), construct for crystallography (human, UniProt O95256-1 15-356)
T1 construct: human IL-18 receptor β, extracellular domains, residues 15-356 of NM_003853; also called IL-18Rβ; source: Sf9 insect cells, secreted, purified (ion exchange, Ni-NTA, gel filtration with or without HRV 3C treatment)
T1 sequence (looked up): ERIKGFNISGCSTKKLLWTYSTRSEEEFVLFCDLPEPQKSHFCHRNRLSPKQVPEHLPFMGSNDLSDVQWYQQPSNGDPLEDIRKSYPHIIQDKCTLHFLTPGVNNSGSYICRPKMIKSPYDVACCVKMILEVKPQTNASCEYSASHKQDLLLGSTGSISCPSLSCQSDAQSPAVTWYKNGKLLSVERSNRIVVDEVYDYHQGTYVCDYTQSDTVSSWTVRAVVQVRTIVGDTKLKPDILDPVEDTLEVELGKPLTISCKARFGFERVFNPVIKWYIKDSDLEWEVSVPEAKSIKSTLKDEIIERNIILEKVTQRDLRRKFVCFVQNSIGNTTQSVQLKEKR

B1: C-terminal 6xHis tagged IL-18Rβ extracellular domains (residues 15-356), for SPR (domain or fragment, human, UniProt O95256-1 15-356, looked up)
chain: T1 sequence (looked up)
notes: human IL-18 receptor β, extracellular domains, residues 15-356 of NM_003853; also called IL-18Rβ WT; IL-18Rβ WT (control); source: silkworm (B. mori) larvae, BmNPV bacmid, haemolymph, purified as from Sf9; not shown: 6xHis, C-terminal, kept
B2: IL-18Rβ L167A, C-terminal 6xHis tagged extracellular domains (residues 15-356), for SPR (domain or fragment, human, UniProt O95256-1 15-356, looked up)
chain: T1 sequence (looked up) with L153A
notes: human IL-18 receptor β, extracellular domains, residues 15-356 of NM_003853; source: silkworm (B. mori) larvae, BmNPV bacmid, haemolymph, purified as from Sf9; not shown: 6xHis, C-terminal, kept
B3: IL-18Rβ Y214A, C-terminal 6xHis tagged extracellular domains (residues 15-356), for SPR (domain or fragment, human, UniProt O95256-1 15-356, looked up)
chain: T1 sequence (looked up) with Y200A
notes: as for B2
B4: IL-18Rβ E210A, C-terminal 6xHis tagged extracellular domains (residues 15-356), for SPR (domain or fragment, human, UniProt O95256-1 15-356, looked up)
chain: T1 sequence (looked up) with E196A
notes: human IL-18 receptor β, extracellular domains, residues 15-356 of NM_003853; In the luciferase reporter assay the same mutation stood in full-length IL-18Rβ (pcDNA3.1+) expressed in HEK293 cells; source: silkworm (B. mori) larvae, BmNPV bacmid, haemolymph, purified as from Sf9; not shown: 6xHis, C-terminal, kept
B5: IL-18Rβ K313A, C-terminal 6xHis tagged extracellular domains (residues 15-356), for SPR (domain or fragment, human, UniProt O95256-1 15-356, looked up)
chain: T1 sequence (looked up) with K299A
notes: as for B4
B6: IL-18 receptor α extracellular domains (residues 20-329), construct for crystallography (domain or fragment, human, UniProt Q13478 20-329, looked up)
chain: ESCTSRPHITVVEGEPFYLKHCSCSLAHEIETTTKSWYKSSGSQEHVELNPRSSSRIALHDCVLEFWPVELNDTGSYFFQMKNYTQKWKLNVIRRNKHSCFTERQVTSKIVEVKKFFQITCENSYYQTLVNSTSLYKNCKKLLLENNKNPTIKKNAEFEDQGYYSCVHFLHHNGKLFNITKTFNITIVEDRSNIVPVLLGPKLNHVAVELGKNVRLNCSALLNEEDVIYWMFGEENGSDPNIHEEKEMRIMTPEGKWHASKVLRIENIGESNLNVLYNCTVASTGGTDTKSFILVRKADMADIPGHVFTR
modifications: N-linked glycosyl chains at Asn91, 102, 150, 197, 203, 236 and 297 (high-mannose glycans, Sf9)
notes: human IL-18 receptor α, extracellular domains, residues 20-329 of NM_003855; also called IL-18Rα; source: Sf9 insect cells, secreted, purified (ion exchange, Ni-NTA, gel filtration with or without HRV 3C treatment)
B7: human IL-18 receptor beta extracellular domain (residues 15-356), C-terminal 6xHis, wild type, from silkworm (receptor, UniProt O95256-1 15-356, looked up)
chain: T1 sequence (looked up)
notes: IL-18 receptor beta, human, extracellular domains, residues 15-356 of NM_003853; also called IL-18Rβ; IL-18Rβ WT; source: silkworm (B. mori) larvae, BmNPV bacmid, haemolymph, purified (ion exchange, Ni-NTA, gel filtration); not shown: 6xHis, C-terminal, kept
B8: human IL-18 receptor beta extracellular domain (residues 15-356), C-terminal 6xHis, E210A (receptor, UniProt O95256-1 15-356, looked up)
chain: T1 sequence (looked up) with E196A
notes: IL-18 receptor beta, human, extracellular domains, residues 15-356 of NM_003853; also called IL-18Rβ E210A; source: silkworm (B. mori) larvae, BmNPV bacmid, haemolymph, purified (ion exchange, Ni-NTA, gel filtration); not shown: 6xHis, C-terminal, kept
B9: human IL-18 receptor beta extracellular domain (residues 15-356), C-terminal 6xHis, L167A (receptor, UniProt O95256-1 15-356, looked up)
chain: T1 sequence (looked up) with L153A
notes: IL-18 receptor beta, human, extracellular domains, residues 15-356 of NM_003853; also called IL-18Rβ L167A; source: silkworm (B. mori) larvae, BmNPV bacmid, haemolymph, purified (ion exchange, Ni-NTA, gel filtration); not shown: 6xHis, C-terminal, kept
B10: human IL-18 receptor beta extracellular domain (residues 15-356), C-terminal 6xHis, Y214A (receptor, UniProt O95256-1 15-356, looked up)
chain: T1 sequence (looked up) with Y200A
notes: IL-18 receptor beta, human, extracellular domains, residues 15-356 of NM_003853; also called IL-18Rβ Y214A; source: silkworm (B. mori) larvae, BmNPV bacmid, haemolymph, purified (ion exchange, Ni-NTA, gel filtration); not shown: 6xHis, C-terminal, kept
B11: human IL-18 receptor beta extracellular domain (residues 15-356), C-terminal 6xHis, K313A (receptor, UniProt O95256-1 15-356, looked up)
chain: T1 sequence (looked up) with K299A
notes: IL-18 receptor beta, human, extracellular domains, residues 15-356 of NM_003853; also called IL-18Rβ K313A; source: silkworm (B. mori) larvae, BmNPV bacmid, haemolymph, purified (ion exchange, Ni-NTA, gel filtration); not shown: 6xHis, C-terminal, kept
B12: human IL-18 receptor beta extracellular domain (residues 15-356), C-terminal 6xHis, S169A-T170A (receptor, UniProt O95256-1 15-356, looked up)
chain: T1 sequence (looked up) with S155A, T156A
notes: IL-18 receptor beta, human, extracellular domains, residues 15-356 of NM_003853; also called IL-18RβS169A-T170A; source: silkworm (B. mori) larvae, BmNPV bacmid, haemolymph, purified (ion exchange, Ni-NTA, gel filtration); not shown: 6xHis, C-terminal, kept

The molecules below were run against T2, IL-18WT/IL-18Rα N236Q complex (SPR analyte) (human, UniProt Q14116 37-193; Q13478 20-329, N236Q) (assay: SPR; BIAcore 3000, 25 °C, C-terminal 6xHis IL-18Rβ immobilised (~100 RU) on an NTA sensor chip, un-tagged IL-18Rα saturated with 500 nM IL-18 as analyte in HBS-P). Conditions: both partners purified.
T2 construct: human interleukin-18, mature IL-18 (residues 1-157); numbers count on: the mature protein; human IL-18 receptor α, extracellular domains, residues 20-329 of NM_003855, used instead of the un-tagged wild type; The mutation removes the N-linked sugar chain at Asn236; also called N236Q^Rα; source: IL-18: E. coli BL21(DE3), purified; IL-18Rα mutant: silkworm larvae haemolymph, purified; IL-18Rα …
For B1, the Kd was 17 nM.

What follows are molecules tested against T3, IL-18 WT/IL-18Rα WT complex (SPR analyte) (human, UniProt Q14116 37-193; Q13478 20-329) in the same assay as above. Conditions: both partners purified.
T3 construct: human interleukin-18, mature IL-18 (residues 1-157); numbers count on: the mature protein; human IL-18 receptor α, extracellular domains, residues 20-329 of NM_003855, printed as un-tagged; also called IL-18/IL-18Rα binary complex; IL-18 WT(control); source: IL-18: E. coli BL21(DE3), purified; IL-18Rα: silkworm larvae haemolymph, purified; un-tagged IL-18Rα saturated with 500 nM IL-18
For B2, the Kd was 33 nM.
Molecule B3 has a Kd of 50 nM.
B4 was tested, and the Kd was 327 nM.
In the case of B1, the Kd is reported as 15 nM.
With B5 the Kd was 109 nM.

What follows are molecules tested against C-terminal 6xHis tagged IL-18Rβ extracellular domains (residues 15-356), for SPR (human) (UniProt O95256) in the same assay as above. Conditions: not given.
“IL-18 D110A/IL-18Rα WT complex (SPR analyte) (from UniProt Q13478 20-329)” gave a Kd of 56 nM.
In the case of “IL-18 G145A/IL-18Rα WT complex (SPR analyte) (from UniProt Q13478 20-329)”, the Kd is reported as 28 nM.
For “IL-18 R147A/IL-18Rα WT complex (SPR analyte) (from UniProt Q13478 20-329)”, the Kd was 57 nM.

The molecules below were run against human IL-18 receptor alpha extracellular domain (residues 20-329), C-terminal 6xHis, wild type, from silkworm (human) (UniProt Q13478) (assay: SPR; BIAcore 3000, 25 °C; C-terminal 6xHis IL-18Rα (wild type or mutant) immobilised at about 200 RU on a Ni-NTA sensor chip; IL-18 (wild type or mutant) injected as analyte in HBS-P (10 mM HEPES-Na pH 7.4, 150 mM NaCl, 0.01% P-20), 30 µl/min, 180 s association, 360 s dissociation; triplicate). Conditions: not given.
Work on “human interleukin-18, mature, D110A (ligand)” yielded a Kd of 23 nM and a kon of 106000 M⁻¹ s⁻¹.
With “human interleukin-18, mature, G108A (ligand)” the Kd was 184 nM and the kon was 52000 M⁻¹ s⁻¹.
With “human interleukin-18, mature, G145A (ligand)” the Kd was 57 nM and the kon was 59000 M⁻¹ s⁻¹.
With “human interleukin-18, mature, H109A (ligand)” the Kd was 48 nM and the kon was 62000 M⁻¹ s⁻¹.
“human interleukin-18, mature, K79A (ligand)” showed a Kd of 55 nM and a kon of 76000 M⁻¹ s⁻¹.
For “human interleukin-18, mature, K112A (ligand)”, the Kd was 51 nM and the kon was 64000 M⁻¹ s⁻¹.
“human interleukin-18, mature, M150A (ligand)” showed a Kd of 59 nM and a kon of 57000 M⁻¹ s⁻¹.
With “human interleukin-18, mature, R147A (ligand)” the Kd was 67 nM and the kon was 68000 M⁻¹ s⁻¹.

Each molecule was assayed against human IL-18 receptor beta extracellular domain (residues 15-356), C-terminal 6xHis, wild type, from silkworm (human) (UniProt O95256) (assay: SPR; BIAcore 3000, 25 °C; C-terminal 6xHis IL-18Rβ (wild type or mutant) immobilised at about 100 RU on a Ni-NTA sensor chip; un-tagged IL-18Rα saturated with 500 nM IL-18 (preformed binary complex) injected as analyte in HBS-P; triplicate). Conditions: not given.
Molecule “preformed binary complex of IL-18 K79A and un-tagged IL-18Rα wild type extracellular domain (from UniProt Q13478 20-329)” has a Kd of 13 nM and a kon of 13000 M⁻¹ s⁻¹.
Work on “preformed binary complex of IL-18 K84A and un-tagged IL-18Rα wild type extracellular domain (from UniProt Q13478 20-329)” yielded a Kd of 18 nM and a kon of 10000 M⁻¹ s⁻¹.
For “preformed binary complex of IL-18 R147A and un-tagged IL-18Rα wild type extracellular domain (from UniProt Q13478 20-329)”, the kon was 69000 M⁻¹ s⁻¹.

The molecules below were run against T1, IL-18 receptor β extracellular domains … (assay: crystal structure; IL-18/IL-18Rα/IL-18Rβ ternary complex, 3.10 Å, one copy in the asymmetric unit, data at 100 K (PDB 3WO4)). Conditions: both partners purified.
B6: binds.

Each molecule was assayed against T4, preformed binary complex of IL-18 wild type and un-tagged IL-18Rα N236Q extracellular domain (human, UniProt Q14116 37-193; Q13478 20-329, N236Q) (assay: SPR; BIAcore 3000, 25 °C; C-terminal 6xHis IL-18Rβ (wild type or mutant) immobilised at about 100 RU on a Ni-NTA sensor chip; un-tagged IL-18Rα saturated with 500 nM IL-18 (preformed binary complex) injected as analyte in HBS-P; triplicate). Conditions: both partners purified.
T4 construct: interleukin-18, human, mature IL-18 (residues 1-157); numbers count on: the mature protein; IL-18 receptor alpha, human, extracellular domains, residues 20-329 of NM_003855; lacks the N-linked sugar chain on N236; also called IL-18WT/IL-18Rα mutant complex; IL18/IL18Rα-N236Q; source: IL-18: E. coli BL21(DE3), purified; IL-18Rα: silkworm larvae haemolymph, purified; un-tagged IL-18Rα saturated …
B7 showed a kon of 12000 M⁻¹ s⁻¹.

These molecules were tested against T5, preformed binary complex of IL-18 wild type and un-tagged IL-18Rα wild type extracellular domain (human, UniProt Q14116 37-193; Q13478 20-329) in the same assay as above. Conditions: both partners purified.
T5 construct: interleukin-18, human, mature IL-18 (residues 1-157); numbers count on: the mature protein; IL-18 receptor alpha, human, extracellular domains, residues 20-329 of NM_003855; also called IL-18 WT/IL-18Rα WT complex; IL-18/IL-18Rα; source: IL-18: E. coli BL21(DE3), purified; IL-18Rα: silkworm larvae haemolymph, purified; un-tagged IL-18Rα saturated with 500 nM IL-18
B8 gave a kon of 71000 M⁻¹ s⁻¹.
Molecule B9 has a kon of 76000 M⁻¹ s⁻¹.
Work on B10 yielded a kon of 97000 M⁻¹ s⁻¹.
B11 gave a kon of 103000 M⁻¹ s⁻¹.
Work on B7 yielded a kon of 11000 M⁻¹ s⁻¹.
B12 gave a Kd of 77 nM and a kon of 68000 M⁻¹ s⁻¹.
